Substitutions are numbered along the chain they refer to.
T1: extracellular domain of human PRLR (soluble, monomeric, expressed in HEK293 cells) (human, UniProt P16471 25-234)
T1 construct: also called ECD-PRLR; ECD of PRLR
T1 sequence: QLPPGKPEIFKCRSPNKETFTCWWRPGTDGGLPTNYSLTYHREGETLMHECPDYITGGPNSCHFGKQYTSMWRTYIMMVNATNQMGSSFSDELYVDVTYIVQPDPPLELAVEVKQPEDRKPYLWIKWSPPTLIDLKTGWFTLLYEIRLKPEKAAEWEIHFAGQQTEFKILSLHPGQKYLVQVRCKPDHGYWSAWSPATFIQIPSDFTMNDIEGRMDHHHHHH

T2: human prolactin receptor on cells (T47D cells; HEK293 and Ba/F cells stably transfected with human PRLR) (human, UniProt P16471 25-622)
T2 sequence (looked up): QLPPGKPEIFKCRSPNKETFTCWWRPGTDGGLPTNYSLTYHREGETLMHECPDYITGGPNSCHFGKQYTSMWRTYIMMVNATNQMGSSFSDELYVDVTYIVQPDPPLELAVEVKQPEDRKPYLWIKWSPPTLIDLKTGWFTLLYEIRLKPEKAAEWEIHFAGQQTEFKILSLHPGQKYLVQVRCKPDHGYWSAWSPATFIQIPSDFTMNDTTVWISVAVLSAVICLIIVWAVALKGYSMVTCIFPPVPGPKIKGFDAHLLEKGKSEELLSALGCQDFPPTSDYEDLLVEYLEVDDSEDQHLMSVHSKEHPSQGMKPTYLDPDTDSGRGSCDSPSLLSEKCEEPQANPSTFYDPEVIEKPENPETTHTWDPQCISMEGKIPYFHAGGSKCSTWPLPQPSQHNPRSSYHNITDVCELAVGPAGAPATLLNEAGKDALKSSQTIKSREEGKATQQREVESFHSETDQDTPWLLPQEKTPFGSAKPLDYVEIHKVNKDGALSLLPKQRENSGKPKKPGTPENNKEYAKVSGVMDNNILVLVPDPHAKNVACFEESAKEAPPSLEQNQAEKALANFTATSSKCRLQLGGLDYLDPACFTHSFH

T3: murine prolactin receptor on cells (HEK293 and Ba/F cells stably transfected with murine PRLR) (mouse, UniProt Q08501 20-608)
T3 sequence (looked up): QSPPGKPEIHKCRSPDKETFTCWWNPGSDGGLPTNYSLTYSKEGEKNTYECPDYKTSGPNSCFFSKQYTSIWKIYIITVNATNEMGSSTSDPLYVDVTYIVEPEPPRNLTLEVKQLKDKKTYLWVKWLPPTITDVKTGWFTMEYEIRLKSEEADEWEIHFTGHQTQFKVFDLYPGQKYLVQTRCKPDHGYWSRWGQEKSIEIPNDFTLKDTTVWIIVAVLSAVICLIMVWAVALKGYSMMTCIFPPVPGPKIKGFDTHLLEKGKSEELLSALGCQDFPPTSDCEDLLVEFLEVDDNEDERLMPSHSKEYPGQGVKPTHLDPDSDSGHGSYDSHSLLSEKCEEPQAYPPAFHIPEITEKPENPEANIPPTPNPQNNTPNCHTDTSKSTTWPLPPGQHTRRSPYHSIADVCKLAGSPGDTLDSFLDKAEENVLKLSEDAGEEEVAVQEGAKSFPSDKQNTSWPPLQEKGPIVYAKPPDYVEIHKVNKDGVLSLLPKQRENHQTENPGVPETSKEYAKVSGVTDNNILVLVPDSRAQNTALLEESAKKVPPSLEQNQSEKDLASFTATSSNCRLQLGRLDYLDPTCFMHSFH

B1: 006-H08-12-2 (Fab, V domains shown)
VH: EVQLLESGGGLVQPGGSLRLSCAASGFTFDDYGMSWVRQAPGKGLEMVAVISFDGSNKYYADSVKGRFTISRDNSQNTLYLQMNSLRAEDTAVYYCASPLESPVAFDIWGQGTLVTVSS
VL: QSVLTQPPSASGTPGQRVTISCSGLNSNVGSSPVNWYQQLPGTAPKLLIYDNNKRPSGVPDRFSGSKSGTSASLAISGLRSEDEADYYCQSYDEGSGMWVFGGGTKLTVL
notes: Tested as E. coli supernatant; also called maturated 006-H08 Fab variant; copies: 1 + 1
B2: 006-H08-48-5 (Fab, V domains shown)
VH: B1 VH
VL: B1 VL with S27D, S32N, E94T, G97S
notes: as for B1
B3: 006-H08-15-5 (Fab, V domains shown)
VH: B1 VH
VL: B1 VL with V29I, S31G, S96L, G97S, M98G
notes: as for B1
B4: 006-H08-29-1 (Fab, V domains shown)
VH: B1 VH
VL: B1 VL with S27D, S31G, E94T, S96A
notes: as for B1
B5: 006-H08-39-7 (Fab, V domains shown)
VH: B1 VH
VL: B1 VL with S31G
notes: as for B1
B6: 006-H08 (human IgG1) (antibody, V domains shown)
VH: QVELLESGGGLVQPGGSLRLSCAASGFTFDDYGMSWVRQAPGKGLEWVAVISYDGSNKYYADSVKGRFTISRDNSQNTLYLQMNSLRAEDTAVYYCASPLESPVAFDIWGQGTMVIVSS
VL: DIVLTQPPSASGTPGQRVTISCSGSNSNIGSNPVNWYQQLPGTAPKLLIYDNNKRPSGVPDRFSGSKSGTSASLAISGLRSEDEADYYCQSYDTGLSGWVFGGGTKLTVLG
B7: HE06.642 (antibody, IgG1, V domains shown)
VH: EVQLVESGGGLVQPGGSLRLSCAVSGFTFSSYGMSWVRQAPGKGLEWVATVSSGGTYTYYPDSVKGRFTISRDNSKNTLYLQMNSLRAEDTAVYYCARHRGNYYATYYYAMDYWGQGTLVTVSS
VL: DIVLTQSPDSLAVSLGERATINCKASKSVSTSGYTYMHWYQQKPGQPPKLLIYLASNRESGVPDRFSGSGSGTDFTLTISPVQAEDVATYYCQHSGELPPSFGQGTKLEIKR

Experiments:
[1] = biological target: T1, extracellular domain of human PRLR …; assay: HTRF competition: Fab-containing E. coli supernatant with biotinylated ECD of human PRLR and streptavidin-europium, then Alexa Fluor 647-labelled IgG1 006-H08 as competitor; signal at 665 nm after 5 to 65 min; lower signal than control Fab 006-H08 = improved binding
[2] = biological target: T2, human prolactin receptor on cells (T47D …); assay: cell-based or functional assay
[3] = biological target: T3, murine prolactin receptor on cells …; assay: cell-based or functional assay

Binder	binding result [1]	IC50, prolactin-activated luciferase reporter gene activity, HEK293 cells stably transfected with hPRLR [2]	IC50, inhibition of prolactin-activated proliferation of Ba/F cells stably expressing the murine prolactin receptor [3]
B1	binds		
B2	binds		
B3	binds		
B4	binds		
B5	binds		
B6		0.83 µg/mL	
B7		0.63 µg/mL	> 30 µg/mL

From patent US20130272968A1 (Bayer, published 2013)
